One substance from article PMC4899274 can be followed below.

For this test, the target named is triplex subunit VP23 (HSV-1) (human herpes simplex virus type 1 (HSV-1), strain KOS) (UniProt P10202). In words: cryo-EM structure.

On to “triplex subunit VP23 (HSV-1) (from UniProt P10202 1-318) (natural protein)”, for which the stoichiometry N is 2.

A word on the stoichiometry N: it is a count of units in the complex or per binding partner.
